Data on eight molecules can be found in US20020146411A1, “Anticoagulant agents useful in treatment of thrombosis” (SmithKline Beecham Corporation, priority 1996, published 2002).

“Also recorded” adds a separate entry of the source.

Assay [1] deals with T1, Recombinant human Factor IX (rhFIX) (Homo sapiens, UniProt P00740, T194A).
T1 construct: purchased Genetics Institute
Briefly: BIAcore kinetics of Factor IX binding to mAb on protein A surface. To be noted: rhFIX 49 nM, 5 mM Ca2+, biosensor. On the procedure:
The kinetics of Factor IX binding to SB 249417 was assessed by BIAcore analysis with antibody bound to an immobilized protein A surface. Recombinant human Factor IX (rhFIX, Genetics Institute) at 49 nM was used and measurements performed in the presence of 5 mM Ca^2+. The interaction was characterized by rapid association, kass 2.0×10^5 M^−1 s^−1 and relatively slow off-rate, kdiss=4.1×10^−4 s^−1.
In general terms: SPR reads the build-up and loss of mass on a sensor chip optically.

Assay [2] relates to rat carotid artery thrombosis. Kind of assay: Rat carotid artery thrombosis model, humanized mAbs, Example 8. In kind it is in vivo. To be noted: 3.0 mg/kg i.v. bolus, 60 minutes after onset of injury. How it is done:
In order to evaluate the efficacy of humanized anti-Factor IX antibodies in prevention of arterial thrombosis, the rat carotid artery thrombosis model as described above in Example 3 was used. Baseline parameters were established for carotid blood flow, arterial pressure, heart rate, vessel patency and activated partial thromboplastin time (aPTT). Fifteen minutes thereafter, carotid injury was effected for […]. The parameters were determined 60 minutes after onset of carotid injury. Carotid thrombus was also extracted from the carotid artery and weighed.
All agents were administered intravenously 15 minutes before the onset of carotid injury. The following treatments were examined and compared to the anti-Factor IX mAb BC2.

Assay [3] concerns BC2 antibody. Briefly: BiaCore binding of Factor IX/Factor VII constructs to immobilized BC2. To be noted: 200 nM construct, 25 mM MOPS pH 7.4, 0.15 M NaCl, 5 mM CaCl2. On the procedure:
A library of chimeric constructs composed of sequences of Factor IX spliced into the framework of the homologous protein Factor VII was constructed and used to map the epitope for the Factor IX BC2 mAb. See Cheung et al., Thromb. Res. 80, 419-427 (1995). Binding was measured using a BiaCore 2000 surface plasmon resonance device. The BC2 antibody was coupled directly to the chip using the NHS/EDC reaction. Binding was measured by 2 min of contact time at 20 uL/min with 200 nM of each of the given constructs in 25 mM MOPS, pH 7.4, 0.15 M NaCl, 5 mM CaCl2. Dissociation was monitored for 3 min using the same buffer with no protein. No binding was detected to the wild type construct in the presence of 50 mM EDTA.

T1 sequence (P00740 47-461 T194A): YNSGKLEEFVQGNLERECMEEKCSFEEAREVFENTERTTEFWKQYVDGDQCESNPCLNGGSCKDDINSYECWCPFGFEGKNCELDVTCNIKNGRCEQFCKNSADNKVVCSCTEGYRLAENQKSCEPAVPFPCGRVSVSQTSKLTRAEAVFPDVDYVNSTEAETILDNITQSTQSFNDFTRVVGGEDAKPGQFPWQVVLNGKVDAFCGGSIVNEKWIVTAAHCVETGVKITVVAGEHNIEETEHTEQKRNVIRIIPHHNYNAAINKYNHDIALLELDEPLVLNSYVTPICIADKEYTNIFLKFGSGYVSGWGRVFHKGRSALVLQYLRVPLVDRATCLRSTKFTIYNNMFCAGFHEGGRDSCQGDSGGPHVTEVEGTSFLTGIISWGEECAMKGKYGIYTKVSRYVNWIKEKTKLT

B1: Chf9: mouse-human chimeric antibody directed against human Factor IX, chains F9CHLC and F9CHHC with BC2 variable regions (antibody)
heavy: QIQLVQSGPELKKPGETVKISCKASGYTFTNYGMNWVKQAPGKGLKWMGWINTRNGKSTYVDDFKGRFAFSLESSASTANLQIDNLKDEDTATYFCTREGNMDGYFPFTYWGQGTLVTVSA
light: QIVLSQSPAILSASPGEKVTMTCRASSSVNYMHWYQQKPGSSPKPWIYATSNLASGVPARFSGSGSGTSYSLTISRVEAEDAATYYCQQWSINPRTFGGGTKLEIK
Take B1: in assay [1], the kass is 240000 M⁻¹ s⁻¹ and the kdiss was 0.0003 s⁻¹.

B2: SB 249413: humanized anti-Factor IX mAb, heavy chain F9HZHC 1-0 (SEQ ID NO: 31), light chain F9HZLC 1-0 (SEQ ID NO: 44) (antibody, V domains shown)
VH: QVQLVQSGSELKKPGASVKVSCKASGYTFTNYGMNWVRQAPGQGLEWMGWINTRNGKSTYVDDFKGRFVFSLDTSVSTAYLQISSLKADDTAVYYCAREGNMDGYFPFTYWGQGTLVTVSS
VL: EIVLTQSPATLSLSPGERATLSCRASSSVNYMHWYQQRPGQAPRLLIYATSNLASGIPARFSGSGSGTDFTLTISSLEPEDFAVYYCQQWSINPRTFGGGTKVEIKR
In the case of B2, in assay [2], the “effect on aPTT (FIG. 8)” value was “modest effect”. Besides, in assay [1], the kass amounted to 650000 M⁻¹ s⁻¹ and the kdiss came to 0.0028 s⁻¹.

B3: SB 249415: humanized anti-Factor IX mAb, heavy chain F9HZHC 1-1 (SEQ ID NO: 52), light chain F9HZLC 1-1 (SEQ ID NO: 57) (antibody, V domains shown)
VH: QVQLVQSGSELKKPGASVKVSCKASGYTFTNYGMNWVRQAPGQGLKWMGWINTRNGKSTYVDDFKGRFVFSLDSSVSTAYLQISSLKADDTAVYYCTREGNMDGYFPFTYWGQGTLVTVSS
VL: EIVLTQSPATLSLSPGERATLSCRASSSVNYMHWYQQRPGQAPKPWIYATSNLASGVPARFSGSGSGTDFTLTISSLEPEDFAVYYCQQWSINPRTFGGGTKVEIKR
As for B3, in assay [2], the “effect on aPTT (FIG. 8)” value was “modest effect”. Besides, in assay [1], the kass is 750000 M⁻¹ s⁻¹ and the kdiss came out at 0.00018 s⁻¹.

B4: SB 257731: humanized anti-Factor IX mAb, heavy chain F9HZHC 1-1 (SEQ ID NO: 52), light chain F9HZLC 1-3 (SEQ ID NO: 78) (antibody, V domains shown)
VH: QVQLVQSGSELKKPGASVKVSCKASGYTFTNYGMNWVRQAPGQGLKWMGWINTRNGKSTYVDDFKGRFVFSLDSSVSTAYLQISSLKADDTAVYYCTREGNMDGYFPFTYWGQGTLVTVSS
VL: MGWSCIILFLVATATGVHSQIVLTQSPATLSLSPGERATLSCRASSSVNYMHWYQQRPGQAPKPWIYATSNLASGVPARFSGSGSGTDYTLTISSLEPEDFAVYYCQQWSINPRTFGGGTKVEIK
As to B4, the “effect on aPTT (FIG. 8)” value in assay [2] is on record as “modest effect”. Further, in assay [1], the kass was determined as 920000 M⁻¹ s⁻¹ and the kdiss is 0.00099 s⁻¹.

B5: SB 249416: humanized anti-Factor IX mAb, heavy chain F9HZHC 1-1 (SEQ ID NO: 52), light chain F9HZLC 1-2 (SEQ ID NO: 62) (antibody, V domains shown)
VH: QVQLVQSGSELKKPGASVKVSCKASGYTFTNYGMNWVRQAPGQGLKWMGWINTRNGKSTYVDDFKGRFVFSLDSSVSTAYLQISSLKADDTAVYYCTREGNMDGYFPFTYWGQGTLVTVSS
VL: EIVLTQSPATLSLSPGERATLSCRASSSVNYMHWYQQRPGQAPKPWIYATSNLASGVPARFSGSGSGTDYTLTISSLEPEDFAVYYCQQWSINPRTFGGGTKVEIKR
For the molecule B5, in assay [2], the “effect on aPTT (FIG. 8)” value was “modest effect”. In assay [1], the kass is 520000 M⁻¹ s⁻¹ and the kdiss was determined as 0.00041 s⁻¹.

B6: IX-A/VII: construct with the Factor IX gla and aromatic stack domains in Factor VII (protein)
chain: YNSGKLEEFVQGNLERECMEEKCSFEEAREVFENTERTTEFWKQYVDGDQCASSPCQNGGSCKDQLQSYICFCLPAFEGRNCETHKDDQLICVNENGGCEQYCSDHTGTKRSCRCHEGYSLLADGVSCTPTVEYPCGKIPILEKRNASKPQGRIVGGKVCPKGECPWQVLLLVNGAQLCGGTLINTIWVVSAAHCFDKIKNWRNLIAVLGEHDLSEHDGDEQSRRVAQVIIPSTYVPGTTNHDIALLRLHQPVVLTDHVVPLCLPERTFSERTLAFVRFSLVSGWGQLLDRGATALELMVLNVPRLMTQDCLQQSRKVGDSPNITEYMFCAGYSDGSKDSCKGDSGGPHATHYRGTWYLTGIVSWGQGCATVGHFGVYTRVSQYIEWLQKLMRSEPRPGVLLRAPFP
On to B6, for which, in assay [3], the “Degree of Binding to BC2” value is reported as “exhibit binding to BC2; also recorded: Binds”.

B7: SB 257732: humanized anti-Factor IX mAb, heavy chain F9HZHC 3-0 (SEQ ID NO: 89), light chain F9HZLC 3-0 (SEQ ID NO: 99) (antibody, V domains shown)
VH: MGWSCIILFLVATATGVHSQIQLVQSGSELKKPGASVKVSCKASGYTFTNYGMNWVRQAPGQGLEWMGWINTRNGKSTYVDDFKGRFVFSLDTSVSTAYLQISSLKAEDTAVYFCTREGNMDGYFPFTYWGQGTLVTVSS
VL: MGWSCIILFLVATATGVHSQIVLTQSPSSLSASVGDRVTITCRASSSVNYMHWYQQKPGKAPKPWIYATSNLASGVPSRFSGSGSGTDYTLTISSLQPEDFATYYCQQWSINPRTFGGGTKLEIKRTVV
For the molecule B7, in assay [1], the kass is 1.1e+06 M⁻¹ s⁻¹ and the kdiss came to 0.0012 s⁻¹.

B8: IX LC/VII HC: construct containing the Factor IX light chain and Factor VII heavy chain (protein)
chain: YNSGKLEEFVQGNLERECMEEKCSFEEAREVFENTERTTEFWKQYVDGDQCESNPCLNGGSCKDDINSYECWCPFGFEGKNCELDVTCNIKNGRCEQFCKNSADNKVVCSCTEGYRLAENQKSCEPAVPFPCGRVSVSQTSKLTRIVGGKVCPKGECPWQVLLLVNGAQLCGGTLINTIWVVSAAHCFDKIKNWRNLIAVLGEHDLSEHDGDEQSRRVAQVIIPSTYVPGTTNHDIALLRLHQPVVLTDHVVPLCLPERTFSERTLAFVRFSLVSGWGQLLDRGATALELMVLNVPRLMTQDCLQQSRKVGDSPNITEYMFCAGYSDGSKDSCKGDSGGPHATHYRGTWYLTGIVSWGQGCATVGHFGVYTRVSQYIEWLQKLMRSEPRPGVLLRAPFP
For the molecule B8, the “Degree of Binding to BC2” value in assay [3] was “exhibit binding to BC2; also recorded: Binds”.
